From publication PMC5622320 (Nucleic Acids Research, 2017)

Target: T1, stFlhD4C2 (Salmonella typhimurium, UniProt P0A2R2;O52222)
T1 sequence 1: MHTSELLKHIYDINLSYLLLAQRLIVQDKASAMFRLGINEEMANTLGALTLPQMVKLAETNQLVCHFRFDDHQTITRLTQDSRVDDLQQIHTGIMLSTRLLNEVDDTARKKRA
T1 sequence 2: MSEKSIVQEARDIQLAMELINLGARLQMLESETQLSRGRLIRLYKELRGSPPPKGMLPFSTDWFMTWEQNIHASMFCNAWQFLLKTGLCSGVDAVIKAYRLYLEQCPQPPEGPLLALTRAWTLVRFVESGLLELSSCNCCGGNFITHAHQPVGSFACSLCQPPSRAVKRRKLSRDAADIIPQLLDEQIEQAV
Experiment: native gel or EMSA

B1: YdiV (natural protein)
chain: MKIFLENLYHSDCYFLPIRDNQQVLVGVELITHFSSEDGTVRIPTSRVIAQLTEEQHWQLFSEQLELLKSCQHFFIQHKLFAWLNLTPQVATLLLERDNYAGELLKYPFIELLINENYPHLNEGKDNRGLLSLSQVYPLVLGNLGAGNSTMKAVFDGLFTRVMLDKSFIQQQITHRSFEPFIRAIQAQISPCCNCIIAGGIDTAEILAQITPFDFHALQGCLWPAVPINQITTLVQR
B1: binds.
